Measurements reported in patent US20140087995A1 (published 2014).
Read-outs that look alike come from different tables or passages of the source. Numbered stars: 1 amine (or outer) side, 2 acyl side, 3 side chain; on linkers, the order of the positions; unused ones are H or OH. Bridge positions count the residues as written; N and C are the ends. Square brackets hold non-standard residues; d marks the D form. Side chains are listed from the residue outwards. Ends that are not written are not given here. * marks the point of attachment. C20 diacid = O=C(O)CCCCCCCCCCCCCCCCCCC(=O)*; γGlu = O=C(O)[C@H](CCC(=O)[*:2])N[*:1]

T1: human calcitonin receptor (human, UniProt P30988 25-474)
T1 sequence (looked up): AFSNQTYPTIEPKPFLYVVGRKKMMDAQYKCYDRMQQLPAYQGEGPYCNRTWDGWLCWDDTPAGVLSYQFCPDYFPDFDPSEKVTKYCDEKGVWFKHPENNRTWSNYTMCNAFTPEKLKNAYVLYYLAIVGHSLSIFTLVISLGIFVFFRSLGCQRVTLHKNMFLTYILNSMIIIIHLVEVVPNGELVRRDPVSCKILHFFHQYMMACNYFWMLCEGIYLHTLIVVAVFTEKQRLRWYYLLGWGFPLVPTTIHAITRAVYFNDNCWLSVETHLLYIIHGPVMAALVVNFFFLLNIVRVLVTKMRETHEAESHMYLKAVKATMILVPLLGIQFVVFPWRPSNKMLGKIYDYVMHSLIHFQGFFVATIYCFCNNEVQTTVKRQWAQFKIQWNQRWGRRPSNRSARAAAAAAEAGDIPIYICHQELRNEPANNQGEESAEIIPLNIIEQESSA

T2: human amylin receptor (amylin 3(a) receptor: human calcitonin receptor with RAMP-3) (human, UniProt P30988 25-474; O60896 24-148, limits assumed)
T2 construct: whole, on cells; Whole cells in the luciferase assay (Assay II a); also called hAmylin-R; hAmylinR
T2 sequence (looked up) 1: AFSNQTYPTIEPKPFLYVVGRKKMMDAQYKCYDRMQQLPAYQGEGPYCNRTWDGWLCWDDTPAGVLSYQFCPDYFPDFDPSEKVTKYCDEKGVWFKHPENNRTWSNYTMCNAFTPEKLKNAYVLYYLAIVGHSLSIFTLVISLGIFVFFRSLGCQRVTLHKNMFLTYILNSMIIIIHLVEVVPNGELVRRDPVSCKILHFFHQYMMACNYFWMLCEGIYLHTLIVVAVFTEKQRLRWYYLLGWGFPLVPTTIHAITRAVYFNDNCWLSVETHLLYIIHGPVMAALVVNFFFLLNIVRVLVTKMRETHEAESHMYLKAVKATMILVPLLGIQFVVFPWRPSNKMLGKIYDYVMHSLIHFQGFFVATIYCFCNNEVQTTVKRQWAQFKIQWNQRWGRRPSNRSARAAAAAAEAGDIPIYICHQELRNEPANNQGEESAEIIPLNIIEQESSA
T2 sequence (looked up) 2: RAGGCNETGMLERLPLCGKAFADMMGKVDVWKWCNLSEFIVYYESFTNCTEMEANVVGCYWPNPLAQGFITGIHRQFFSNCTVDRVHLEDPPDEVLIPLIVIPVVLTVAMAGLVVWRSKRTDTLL

T3: human calcitonin receptor (human, UniProt P30988 25-474)
T3 sequence (looked up): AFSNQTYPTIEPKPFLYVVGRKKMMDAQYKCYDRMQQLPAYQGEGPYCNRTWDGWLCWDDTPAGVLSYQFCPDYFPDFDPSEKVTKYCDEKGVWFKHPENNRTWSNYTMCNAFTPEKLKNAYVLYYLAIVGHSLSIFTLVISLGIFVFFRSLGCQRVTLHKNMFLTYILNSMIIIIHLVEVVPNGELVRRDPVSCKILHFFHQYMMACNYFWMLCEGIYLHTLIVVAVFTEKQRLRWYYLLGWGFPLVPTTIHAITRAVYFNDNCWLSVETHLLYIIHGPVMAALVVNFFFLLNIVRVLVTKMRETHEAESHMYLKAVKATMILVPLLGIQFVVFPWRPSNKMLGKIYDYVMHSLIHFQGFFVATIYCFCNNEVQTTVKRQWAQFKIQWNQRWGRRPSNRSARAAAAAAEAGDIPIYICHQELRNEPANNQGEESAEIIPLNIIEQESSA

T4: human amylin receptor (amylin 3(a) receptor: human calcitonin receptor with RAMP-3) (human, UniProt P30988 25-474; O60896 24-148, limits assumed)
T4 sequence (looked up) 1: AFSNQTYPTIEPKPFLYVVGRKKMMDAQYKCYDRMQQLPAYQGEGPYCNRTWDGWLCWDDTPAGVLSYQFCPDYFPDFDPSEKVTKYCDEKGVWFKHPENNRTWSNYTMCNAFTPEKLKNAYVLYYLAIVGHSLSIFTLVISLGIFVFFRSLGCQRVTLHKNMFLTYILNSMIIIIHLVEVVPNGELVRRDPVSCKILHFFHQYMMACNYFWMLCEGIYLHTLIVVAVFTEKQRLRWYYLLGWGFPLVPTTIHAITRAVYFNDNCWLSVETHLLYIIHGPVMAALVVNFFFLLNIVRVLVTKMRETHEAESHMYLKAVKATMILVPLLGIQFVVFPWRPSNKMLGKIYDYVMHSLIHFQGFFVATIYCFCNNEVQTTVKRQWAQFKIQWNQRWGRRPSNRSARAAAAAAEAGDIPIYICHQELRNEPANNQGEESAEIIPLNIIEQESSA
T4 sequence (looked up) 2: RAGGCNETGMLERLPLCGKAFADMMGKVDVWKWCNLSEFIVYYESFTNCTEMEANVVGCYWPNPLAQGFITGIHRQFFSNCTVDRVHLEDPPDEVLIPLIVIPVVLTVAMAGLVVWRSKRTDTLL


What was measured:
[1] = molecular target: T1, human calcitonin receptor; test: cell-based or functional assay
[2] = molecular target: T2, human amylin receptor (amylin 3(a) …); test: SPA competition binding on membranes of BHK cells with human calcitonin receptor + RAMP-3; displacement of 125I-rat amylin (Assay V)
Outline: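 SPA beads + BHK amylin 3(a)/CRE-luc membranes, 35 ng/μL final; buffer 50 mM Hepes pH 7.4, 1 mM CaCl2, 5 mM MgCl₂, 0.1% OA, 0.02% Tween20. 120 min, 25° C, shaken; scintillation count. IC₅₀ by one-site binding competition fit, taken as receptor affinity.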

[3] = molecular target: T3, human calcitonin receptor; test: cell-based or functional assay; remark: listed apart in the source
[4] = molecular target: T4, human amylin receptor (amylin 3(a) …); test: cell-based or functional assay

Row | Binder | Ratio hCT/hAmylin funct. [1] [ratio] | hCTR funct. EC50 (pM) [1] [pM] | IC50 [2] [nM] | hCTR funct. EC50 (pM) [3] [pM] | Ratio hCT/hAmylin funct. [4] | hAmylin-R funct. EC50 (pM) [4] [pM]
1 | K([γGlu-γGlu-C20 diacid])CNTATCATQRLADFLRHSSPNFGAIPSSTNVGPRTY-NH2 (disulfide 2-7; N-terminus assumed; SMILES CC[C@H](C)[C@H](NC(=O)[C@H](C)NC(=O)CNC(=O)[C@H](Cc1ccccc1)NC(=O)[C@H](CC(N)=O)NC(=O)[C@@H]1CCCN1C(=O)[C@H](CO)NC(=O)[C@H](CO)NC(=O)[C@H](Cc1c[nH]cn1)NC(=O)[C@H](CCCNC(=N)N)NC(=O)[C@H](CC(C)C)NC(=O)[C@H](Cc1ccccc1)NC(=O)[C@H](CC(=O)O)NC(=O)[C@H](C)NC(=O)[C@H](CC(C)C)NC(=O)[C@H](CCCNC(=N)N)NC(=O)[C@H](CCC(N)=O)NC(=O)[C@@H](NC(=O)[C@H](C)NC(=O)[C@@H]1CSSC[C@H](NC(=O)[C@@H](N)CCCCNC(=O)CC[C@H](NC(=O)CC[C@H](NC(=O)CCCCCCCCCCCCCCCCCCC(=O)O)C(=O)O)C(=O)O)C(=O)N[C@@H](CC(N)=O)C(=O)N[C@@H]([C@@H](C)O)C(=O)N[C@@H](C)C(=O)N[C@@H]([C@@H](C)O)C(=O)N1)[C@@H](C)O)C(=O)N1CCC[C@H]1C(=O)N[C@@H](CO)C(=O)N[C@@H](CO)C(=O)N[C@H](C(=O)N[C@@H](CC(N)=O)C(=O)N[C@H](C(=O)NCC(=O)N1CCC[C@H]1C(=O)N[C@@H](CCCNC(=N)N)C(=O)N[C@H](C(=O)N[C@@H](Cc1ccc(O)cc1)C(N)=O)[C@@H](C)O)C(C)C)[C@@H](C)O, also called compound 130) | 44.9 | 7280 | 0.453 | – | – | –
2 | K([γGlu-γGlu-C20 diacid])CNTATCATQRLAEFLRHSSPNFGAIPSSTNVGPRTY-NH2 (disulfide 2-7; N-terminus assumed; SMILES CC[C@H](C)[C@H](NC(=O)[C@H](C)NC(=O)CNC(=O)[C@H](Cc1ccccc1)NC(=O)[C@H](CC(N)=O)NC(=O)[C@@H]1CCCN1C(=O)[C@H](CO)NC(=O)[C@H](CO)NC(=O)[C@H](Cc1c[nH]cn1)NC(=O)[C@H](CCCNC(=N)N)NC(=O)[C@H](CC(C)C)NC(=O)[C@H](Cc1ccccc1)NC(=O)[C@H](CCC(=O)O)NC(=O)[C@H](C)NC(=O)[C@H](CC(C)C)NC(=O)[C@H](CCCNC(=N)N)NC(=O)[C@H](CCC(N)=O)NC(=O)[C@@H](NC(=O)[C@H](C)NC(=O)[C@@H]1CSSC[C@H](NC(=O)[C@@H](N)CCCCNC(=O)CC[C@H](NC(=O)CC[C@H](NC(=O)CCCCCCCCCCCCCCCCCCC(=O)O)C(=O)O)C(=O)O)C(=O)N[C@@H](CC(N)=O)C(=O)N[C@@H]([C@@H](C)O)C(=O)N[C@@H](C)C(=O)N[C@@H]([C@@H](C)O)C(=O)N1)[C@@H](C)O)C(=O)N1CCC[C@H]1C(=O)N[C@@H](CO)C(=O)N[C@@H](CO)C(=O)N[C@H](C(=O)N[C@@H](CC(N)=O)C(=O)N[C@H](C(=O)NCC(=O)N1CCC[C@H]1C(=O)N[C@@H](CCCNC(=N)N)C(=O)N[C@H](C(=O)N[C@@H](Cc1ccc(O)cc1)C(N)=O)[C@@H](C)O)C(C)C)[C@@H](C)O, also called compound 110) | 29.3 | 8160 | 0.326 | – | – | –
3 | K([γGlu-γGlu-C20 diacid])CNTATCATQRLADFLRHSSPNFGAIPSSTNVGPETY-NH2 (disulfide 2-7 (inferred)) | – | – | – | 843 | 5.3 | 159

The next lines start with the values.

Row | Ratio hCT/hAmylin funct. [1] [ratio] | hCTR funct. EC50 (pM) [1] [pM] | IC50 [2] [nM] | hCTR funct. EC50 (pM) [3] [pM] | Ratio hCT/hAmylin funct. [4] | hAmylin-R funct. EC50 (pM) [4] [pM] | Binder
4 | – | 100000 | 0.365 | – | – | – | K([γGlu-γGlu-C20 diacid])CNTATCATQRLA[dD]FLRHSSPNFGAIPSSTNVGSRTY-NH2 (disulfide 2-7; N-terminus assumed; SMILES CC[C@H](C)[C@H](NC(=O)[C@H](C)NC(=O)CNC(=O)[C@H](Cc1ccccc1)NC(=O)[C@H](CC(N)=O)NC(=O)[C@@H]1CCCN1C(=O)[C@H](CO)NC(=O)[C@H](CO)NC(=O)[C@H](Cc1c[nH]cn1)NC(=O)[C@H](CCCNC(=N)N)NC(=O)[C@H](CC(C)C)NC(=O)[C@H](Cc1ccccc1)NC(=O)[C@@H](CC(=O)O)NC(=O)[C@H](C)NC(=O)[C@H](CC(C)C)NC(=O)[C@H](CCCNC(=N)N)NC(=O)[C@H](CCC(N)=O)NC(=O)[C@@H](NC(=O)[C@H](C)NC(=O)[C@@H]1CSSC[C@H](NC(=O)[C@@H](N)CCCCNC(=O)CC[C@H](NC(=O)CC[C@H](NC(=O)CCCCCCCCCCCCCCCCCCC(=O)O)C(=O)O)C(=O)O)C(=O)N[C@@H](CC(N)=O)C(=O)N[C@@H]([C@@H](C)O)C(=O)N[C@@H](C)C(=O)N[C@@H]([C@@H](C)O)C(=O)N1)[C@@H](C)O)C(=O)N1CCC[C@H]1C(=O)N[C@@H](CO)C(=O)N[C@@H](CO)C(=O)N[C@H](C(=O)N[C@@H](CC(N)=O)C(=O)N[C@H](C(=O)NCC(=O)N[C@@H](CO)C(=O)N[C@@H](CCCNC(=N)N)C(=O)N[C@H](C(=O)N[C@@H](Cc1ccc(O)cc1)C(N)=O)[C@@H](C)O)C(C)C)[C@@H](C)O)
5 | 27.8 | 11200 | 1.16 | – | – | – | K([γGlu-γGlu-C20 diacid])CNTATCATQRLAEFLRHSSPNFGAIPSSTNVGSRTY-NH2 (disulfide 2-7; N-terminus assumed; SMILES CC[C@H](C)[C@H](NC(=O)[C@H](C)NC(=O)CNC(=O)[C@H](Cc1ccccc1)NC(=O)[C@H](CC(N)=O)NC(=O)[C@@H]1CCCN1C(=O)[C@H](CO)NC(=O)[C@H](CO)NC(=O)[C@H](Cc1c[nH]cn1)NC(=O)[C@H](CCCNC(=N)N)NC(=O)[C@H](CC(C)C)NC(=O)[C@H](Cc1ccccc1)NC(=O)[C@H](CCC(=O)O)NC(=O)[C@H](C)NC(=O)[C@H](CC(C)C)NC(=O)[C@H](CCCNC(=N)N)NC(=O)[C@H](CCC(N)=O)NC(=O)[C@@H](NC(=O)[C@H](C)NC(=O)[C@@H]1CSSC[C@H](NC(=O)[C@@H](N)CCCCNC(=O)CC[C@H](NC(=O)CC[C@H](NC(=O)CCCCCCCCCCCCCCCCCCC(=O)O)C(=O)O)C(=O)O)C(=O)N[C@@H](CC(N)=O)C(=O)N[C@@H]([C@@H](C)O)C(=O)N[C@@H](C)C(=O)N[C@@H]([C@@H](C)O)C(=O)N1)[C@@H](C)O)C(=O)N1CCC[C@H]1C(=O)N[C@@H](CO)C(=O)N[C@@H](CO)C(=O)N[C@H](C(=O)N[C@@H](CC(N)=O)C(=O)N[C@H](C(=O)NCC(=O)N[C@@H](CO)C(=O)N[C@@H](CCCNC(=N)N)C(=O)N[C@H](C(=O)N[C@@H](Cc1ccc(O)cc1)C(N)=O)[C@@H](C)O)C(C)C)[C@@H](C)O, also called compound 89)
6 | – | – | – | 7280 | – | 162 | K([γGlu-γGlu-C20 diacid])CNTATCATQRLADFLRHSSPNFGAIPSSTNVGPRTY-NH2 (disulfide 2-7 (inferred), also called compound 130)
